According to patent US10738090B2, “Engineered microcompartment protein and related methods and systems of engineering bacterial systems for non-native protein expression and purification” (priority 2017, dated 2020):
No end group written: not given here.

How the values were obtained:
[1] = system: pathogens; settings: cited from earlier work
[2] = system: E. coli BL21(DE3) cells; assay type: cell-based; settings: for concentration showing significant anti-bacterial activity: BL21(DE3) E. coli
Protocol: Growth inhibition activity can be tested against E. coli BL21(DE3) cells. Overnight cultures of cells were diluted to 200 μL of an initial OD600 of 0.05-0.1 in LB medium. Diluted cultures were grown at 37° C., 1000 rpm in a PHMP-4 Microplate Shaker (Grant Instruments, Cambridge, England). Protein was added to the culture at an OD600 of 0.1-0.2. Growth measured by OD600 was monitored over time and were conducted in triplicate. TEV-digested material contained HB-Enc fusion protein (0.5 mg/mL) that was incubated with TEV protease (0.5 U/mL) overnight for 17 h at 4° C.

[3] = biological target: T1, TEV protease (Tobacco etch virus, UniProt P04517); assay type: biochemical; settings: for extent of TEV protease digestion / release of HBCM2 peptide: exogenous TEV protease, overnight at 4° C., G4T linker; for release of HB peptide by TEV protease: GT linker instead of G4T linker between TEV site and N-terminus of Enc, SDS-PAGE
T1 construct: Tobacco etch virus protease (TEV protease)
Protocol: All purified constructs were digested by addition of exogenous TEV protease, followed by overnight incubation at 4° C. Products were resolved on a 16.5% Tris-Tricine gel (Bio-Rad).

[4] = Proteolysis of HB fusion constructs in C43(DE3) cell lysate (SDS-PAGE, anti-His Western blot); parameters: species or system E. coli
Protocol: In particular, in order to perform the testing, all DNA plasmids were transformed and expressed in C43(DE3) cells as described in Example 12, except that cells were grown in 25 mL of LB medium in 150-mL flasks. IPTG induction was conducted overnight for 17 h at 18° C. to enhance soluble protein expression. Cells were harvested and lysed also as described in Example 12.
To test for proteolysis in cell lysate, cells expressing the HB-Enc constructs from 25 mL of culture were harvested and resuspended in phosphate buffer (50 mM sodium phosphate pH 8.0, 500 mM NaCl) and 10 U/mL of DNaseI. Cells were lysed via a French Pressure cell at 14,000 psi and then centrifuged at 12,000 g, 4° C. for 25 min. The supernatant (soluble) fraction was collected and incubated at 4° C. overnight. Samples for SDS-PAGE analysis were collected immediately after lysis and after overnight incubation.
As controls, samples after BPER-II lysis were also prepared. Samples were resolved on an any-kDa SDS-PAGE gel (Bio-Rad) and stained with Coomassie blue. For Western blot analysis, samples were resolved on an any-kDa and blotted to a PVDF membrane using a Transblot Turbo System (Bio-Rad) at 2.5 A for 7 min. Samples were probed using a mouse anti-His-tag primary antibody and a rabbit anti-Mouse-HRP conjugated secondary antibody (both from Bio-Rad). HRP was detected on the membrane using chemiluminescence.

[5] = French press lysis without BPER-II, then overnight incubation at 4° C.
[6] = immediately after French press lysis

**Q.** With Cecropin PR-39 as the molecule, how does the bactericidal activity [1] read?
**A.** high bactericidal activity

**Q.** With “GNNRPVYIPQPRPPHPRI [native Ap peptide, Apidaecin Ia, reference compound]” as the molecule, how does the bactericidal activity [1] read?
**A.** high bactericidal activity

**Q.** And the “concentration showing significant anti-bacterial activity” value ([2]; chemically synthesized peptide)?
**A.** ≥ 100 µg/mL

**Q.** With “MKWKSFIKKLTKAAKKVVTTAKKPLIVENLYFQ [M-HBCM2-TEV]” as the molecule, how does the “concentration showing significant anti-bacterial activity” value ([2]; chemically synthesized peptide) read?
**A.** 2 µg/mL

**Q.** And the MIC ([2]; chemically synthesized peptide, E. coli BL21(DE3), FIG. 31 Panel B)?
**A.** < 5 µg/mL

B1: TEV protease: Tobacco etch virus protease, recognition sequence ENLYFQ/G; negative control alone (protein)
chain: GESLFKGPRDYNPISSTICHLTNESDGHTTSLYGIGFGPFIITNKHLFRRNNGTLLVQSLHGVFKVKNTTTLQQHLIDGRDMIIIRMPKDFPPFPQKLKFREPQREERICLVTTNFQTKSMSSMVSDTSCTFPSSDGIFWKHWIQTKDGQCGSPLVSTRDGFIVGIHSASNFTNTNNYFTSVPKNFMELLTNQEAQQWVSGWRLNADSVLWGGHKVFMSKPEEPFQPVKEATQLMNELVYSQ
**Q.** Which “anti-bacterial / growth inhibition activity” value ([2]; E. coli BL21(DE3), concentration not given) does the source give for B1 here?
**A.** no growth inhibition

B2: HB-EncK71^TEVK138^TEV-His: HBCM2 fused to N-terminus of T. maritima encapsulin; TEV sites after K71 and K138, His-tag; non-cage forming (protein)
chain: MKWKSFIKKLTKAAKKVVTTAKKPLIVENLYFQGGGGGTEFLKRSFAPLTEKQWQEIDNRAREIFKTQLYGRKFVDVEGPYGWEYAAHPLGEVEVLSDENEVVKWGLRKGGENLYFQGGGSLPLIELRATFTLDLWELDNLERGKPNVDLSSLEETVRKVAEFEDEVIFRGCEKSGVKGLLSFEERKGGGGGENLYFQGHHHHHHGGGGGIECGSTPKDLLEAIVRALSIFSKDGIEGPYTLVINTDRWINFLKEEAGHYPLEKRVEECLRGGKIITTPRIEDALVVSERGGDFKLILGQDLSIGYEDREKDAVRLFITETFTFQVVNPEALILLK
**Q.** What does the source list for B2?
**A.** extent of TEV protease digestion / release of HBCM2 peptide [3]: apparent complete digestion; growth inhibition of E. coli ([2]; undigested fusion protein at 40 μg/mL): did not inhibit the growth; truncated products on expression (proteolysis) ([4]; C43(DE3) cells, anti-His-tag Western blot): some truncated products; proteolysis in cell lysate [4, 5]: completely proteolyzed; proteolysis in cell lysate [4, 6]: significantly degraded

B3: HB-EncD60^TEVK138^TEV-His: HB-Enc fusion with TEV site after D60 plus TEV-His insertion after K138; cage forming (protein)
chain: MKWKSFIKKLTKAAKKVVTTAKKPLIVENLYFQGGGGGTEFLKRSFAPLTEKQWQEIDNRAREIFKTQLYGRKFVDVEGPYGWEYAAHPLGEVEVLSDGGENLYFQGGGENEVVKWGLRKSLPLIELRATFTLDLWELDNLERGKPNVDLSSLEETVRKVAEFEDEVIFRGCEKSGVKGLLSFEERKGGGGGENLYFQGHHHHHHGGGGGIECGSTPKDLLEAIVRALSIFSKDGIEGPYTLVINTDRWINFLKEEAGHYPLEKRVEECLRGGKIITTPRIEDALVVSERGGDFKLILGQDLSIGYEDREKDAVRLFITETFTFQVVNPEALILLK
**Q.** With B3 as the molecule, how does the “proteolysis in cell lysate” value [4, 5] read?
**A.** resistant to proteolysis

B4: HB-EncD60^TEVK138^TEV-His with the shorter GT linker: HB-EncD60^TEVK138^TEV-His with a GT linker instead of the G4T linker (protein)
chain: MKWKSFIKKLTKAAKKVVTTAKKPLIVENLYFQGGTEFLKRSFAPLTEKQWQEIDNRAREIFKTQLYGRKFVDVEGPYGWEYAAHPLGEVEVLSDGGENLYFQGGGENEVVKWGLRKSLPLIELRATFTLDLWELDNLERGKPNVDLSSLEETVRKVAEFEDEVIFRGCEKSGVKGLLSFEERKGGGGGENLYFQGHHHHHHGGGGGIECGSTPKDLLEAIVRALSIFSKDGIEGPYTLVINTDRWINFLKEEAGHYPLEKRVEECLRGGKIITTPRIEDALVVSERGGDFKLILGQDLSIGYEDREKDAVRLFITETFTFQVVNPEALILLK
**Q.** Which “release of HB peptide by TEV protease” value [3] does the source give for B4 here?
**A.** did not result in detectable release of HB peptide

B5: HB-EncK138^TEV-His: HBCM2, TEV site, G4T-linker fused to N-terminus of Enc; TEV site and His6-tag after K138; cage forming (protein)
chain: MKWKSFIKKLTKAAKKVVTTAKKPLIVENLYFQGGGGGTEFLKRSFAPLTEKQWQEIDNRAREIFKTQLYGRKFVDVEGPYGWEYAAHPLGEVEVLSDENEVVKWGLRKSLPLIELRATFTLDLWELDNLERGKPNVDLSSLEETVRKVAEFEDEVIFRGCEKSGVKGLLSFEERKGGGGGENLYFQGHHHHHHGGGGGIECGSTPKDLLEAIVRALSIFSKDGIEGPYTLVINTDRWINFLKEEAGHYPLEKRVEECLRGGKIITTPRIEDALVVSERGGDFKLILGQDLSIGYEDREKDAVRLFITETFTFQVVNPEALILLK
**Q.** For B5, which “proteolysis in cell lysate” value [4, 5] is on record?
**A.** resistant to proteolysis

B6: HB-EncV57^TEVK138^TEV-His with the shorter GT linker: HB-EncV57^TEVK138^TEV-His with a GT linker instead of the G4T linker (protein)
chain: MKWKSFIKKLTKAAKKVVTTAKKPLIVENLYFQGGTEFLKRSFAPLTEKQWQEIDNRAREIFKTQLYGRKFVDVEGPYGWEYAAHPLGEVEVGGENLYFQGGGLSDENEVVKWGLRKSLPLIELRATFTLDLWELDNLERGKPNVDLSSLEETVRKVAEFEDEVIFRGCEKSGVKGLLSFEERKGGGGGENLYFQGHHHHHHGGGGGIECGSTPKDLLEAIVRALSIFSKDGIEGPYTLVINTDRWINFLKEEAGHYPLEKRVEECLRGGKIITTPRIEDALVVSERGGDFKLILGQDLSIGYEDREKDAVRLFITETFTFQVVNPEALILLK
**Q.** Which “release of HB peptide by TEV protease” value [3] does the source give for B6 here?
**A.** did not result in detectable release of HB peptide

B7: HB-EncV57^TEVK138^TEV-His: HB-Enc fusion with TEV site after V57 plus TEV-His insertion after K138; cage forming (protein)
chain: MKWKSFIKKLTKAAKKVVTTAKKPLIVENLYFQGGGGGTEFLKRSFAPLTEKQWQEIDNRAREIFKTQLYGRKFVDVEGPYGWEYAAHPLGEVEVGGENLYFQGGGLSDENEVVKWGLRKSLPLIELRATFTLDLWELDNLERGKPNVDLSSLEETVRKVAEFEDEVIFRGCEKSGVKGLLSFEERKGGGGGENLYFQGHHHHHHGGGGGIECGSTPKDLLEAIVRALSIFSKDGIEGPYTLVINTDRWINFLKEEAGHYPLEKRVEECLRGGKIITTPRIEDALVVSERGGDFKLILGQDLSIGYEDREKDAVRLFITETFTFQVVNPEALILLK
**Q.** For B7, which “proteolysis in cell lysate” value [4, 5] is on record?
**A.** resistant to proteolysis

B8: HB-EncK138^TEV-His with the shorter GT linker: HB-EncK138^TEV-His with a GT linker between TEV site and N-terminus of Enc instead of G4T (protein)
chain: MKWKSFIKKLTKAAKKVVTTAKKPLIVENLYFQGGTEFLKRSFAPLTEKQWQEIDNRAREIFKTQLYGRKFVDVEGPYGWEYAAHPLGEVEVLSDENEVVKWGLRKSLPLIELRATFTLDLWELDNLERGKPNVDLSSLEETVRKVAEFEDEVIFRGCEKSGVKGLLSFEERKGGGGGENLYFQGHHHHHHGGGGGIECGSTPKDLLEAIVRALSIFSKDGIEGPYTLVINTDRWINFLKEEAGHYPLEKRVEECLRGGKIITTPRIEDALVVSERGGDFKLILGQDLSIGYEDREKDAVRLFITETFTFQVVNPEALILLK
**Q.** With B8 as the molecule, how does the “release of HB peptide by TEV protease” value [3] read?
**A.** did not result in detectable release of HB peptide

B9: HB-EncK71^TEV (protein)
chain: MKWKSFIKKLTKAAKKVVTTAKKPLIVENLYFQGGGGGTEFLKRSFAPLTEKQWQEIDNRAREIFKTQLYGRKFVDVEGPYGWEYAAHPLGEVEVLSDENEVVKWGLRKGGENLYFQGGGSLPLIELRATFTLDLWELDNLERGKPNVDLSSLEETVRKVAEFEDEVIFRGCEKSGVKGLLSFEERKIECGSTPKDLLEAIVRALSIFSKDGIEGPYTLVINTDRWINFLKEEAGHYPLEKRVEECLRGGKIITTPRIEDALVVSERGGDFKLILGQDLSIGYEDREKDAVRLFITETFTFQVVNPEALILLK
**Q.** With B9 as the molecule, how does the “extent of TEV protease digestion / release of HBCM2 peptide” value [3] read?
**A.** apparent complete digestion

**Q.** What about the “proteolysis in cell lysate” value [4, 5] of the same molecule?
**A.** completely proteolyzed

**Q.** And the “proteolysis in cell lysate” value [4, 6]?
**A.** significantly degraded
